In the supplement of paper PMC9112550, “Optimization of the antimicrobial peptide Bac7 by deep mutational scanning” (BMC Biology, 2022):

Tested on: Escherichia coli TOP10
Assay: shrunken log2 fold change of peptide-encoding DNA abundance (4.5 h post-induction vs induction); higher = less antimicrobial activity (less host growth inhibition)
Details: time post-induction: 4.5 h; library: site-saturation at positions 5, 18, 19, 20
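Further: peptides expressed intracellularly from a pBAD plasmid library in pooled LB shake-flask culture, induced with 0.3% L-arabinose, DNA abundance read by NGS, three biological replicates, DESeq2 with apeglm shrinkage.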

Sequence | shrunken log2 fold change
RRIRGRPPRLPRPRPRPDLMPRP | 0.878
RRIRNRPPRLPRPRPRPIAKPRP | -0.000903
RRIRVRPPRLPRPRPRPKKYPRP | -0.411
RRIRPRPPRLPRPRPRPTDWPRP | 0.257
RRIRDRPPRLPRPRPRPCFYPRP | -0.167
RRIRMRPPRLPRPRPRPDTFPRP | 0.403
RRIRSRPPRLPRPRPRPYVAPRP | -0.402
RRIRERPPRLPRPRPRPNLLPRP | 0.107
RRIRLRPPRLPRPRPRPIKVPRP | -0.135
RRIRFRPPRLPRPRPRPGPDPRP | 0.325
RRIRRRPPRLPRPRPRPRHRPRP | 0.178
RRIRYRPPRLPRPRPRPSRMPRP | -0.303
RRIRFRPPRLPRPRPRPPAAPRP | 1.32
RRIRYRPPRLPRPRPRPACPPRP | -0.0352
RRIRNRPPRLPRPRPRPWWTPRP | -0.129
RRIRYRPPRLPRPRPRPRMSPRP | 0.256
RRIRERPPRLPRPRPRPFISPRP | -0.0623
RRIRDRPPRLPRPRPRPIVIPRP | -0.259
RRIRKRPPRLPRPRPRPEGRPRP | 0.261
RRIRERPPRLPRPRPRPCYHPRP | -0.744
RRIRTRPPRLPRPRPRPACHPRP | 0.049
RRIRLRPPRLPRPRPRPMIYPRP | -0.0701
RRIRMRPPRLPRPRPRPMMYPRP | -0.0758

Sequence | shrunken log2 fold change
RRIRYRPPRLPRPRPRPSQNPRP | -0.874
RRIRPRPPRLPRPRPRPWRCPRP | 0.199
RRIRIRPPRLPRPRPRPWSGPRP | -0.139
RRIRVRPPRLPRPRPRPGDMPRP | -0.136
RRIRTRPPRLPRPRPRPERYPRP | 0.0845
RRIRTRPPRLPRPRPRPERLPRP | -0.0511
RRIRKRPPRLPRPRPRPWNAPRP | 0.0384
RRIRSRPPRLPRPRPRPLAIPRP | -0.0883
RRIRIRPPRLPRPRPRPQQLPRP | -0.0183
RRIRIRPPRLPRPRPRPGGGPRP | 0.659
RRIRPRPPRLPRPRPRPQDTPRP | -0.229
RRIRIRPPRLPRPRPRPYMWPRP | -0.198
RRIRARPPRLPRPRPRPFWAPRP | 0.218
RRIRMRPPRLPRPRPRPDMAPRP | 1.86
RRIRKRPPRLPRPRPRPQDSPRP | -0.017
RRIRIRPPRLPRPRPRPKMCPRP | 0.168
RRIRARPPRLPRPRPRPEKPPRP | 0.64
RRIRDRPPRLPRPRPRPILHPRP | -0.0215
RRIRPRPPRLPRPRPRPWSMPRP | -0.155
RRIRARPPRLPRPRPRPHWIPRP | -0.277
RRIRGRPPRLPRPRPRPVREPRP | 1.11
RRIRARPPRLPRPRPRPHYNPRP | -0.467
RRIRTRPPRLPRPRPRPAFGPRP | 0.155

Sequence | shrunken log2 fold change
RRIRYRPPRLPRPRPRPISKPRP | -0.562
RRIRDRPPRLPRPRPRPYIMPRP | -0.42
RRIRGRPPRLPRPRPRPTLPPRP | 0.574
RRIRRRPPRLPRPRPRPPLYPRP | 0.851
RRIRFRPPRLPRPRPRPKHIPRP | -0.615
RRIRIRPPRLPRPRPRPIPHPRP | -0.297
RRIRERPPRLPRPRPRPVHSPRP | -0.0947
RRIRGRPPRLPRPRPRPKNTPRP | 0.232
RRIRTRPPRLPRPRPRPQMSPRP | 0.056
RRIRMRPPRLPRPRPRPIWCPRP | -0.234
RRIRRRPPRLPRPRPRPQSLPRP | -0.0788
RRIRMRPPRLPRPRPRPFNVPRP | -0.0076
RRIRIRPPRLPRPRPRPGYIPRP | -0.752
RRIRTRPPRLPRPRPRPDAVPRP | 0.171
RRIRSRPPRLPRPRPRPMLFPRP | -0.196
RRIRTRPPRLPRPRPRPLHQPRP | 0.0302
RRIRPRPPRLPRPRPRPFGLPRP | -0.209
RRIRYRPPRLPRPRPRPRIHPRP | -0.287
RRIRRRPPRLPRPRPRPKMFPRP | -0.131
RRIRIRPPRLPRPRPRPLTDPRP | -0.201
RRIRARPPRLPRPRPRPSPRPRP | 0.818
RRIRPRPPRLPRPRPRPEEWPRP | -0.0099
RRIRPRPPRLPRPRPRPDQVPRP | 0.0258

Sequence | shrunken log2 fold change
RRIRDRPPRLPRPRPRPICAPRP | 0.172
RRIRMRPPRLPRPRPRPVWFPRP | 0.46
RRIRERPPRLPRPRPRPENEPRP | -0.0522
RRIRTRPPRLPRPRPRPEPYPRP | 0.0261
RRIRNRPPRLPRPRPRPPVHPRP | -0.148
RRIRRRPPRLPRPRPRPQVIPRP | -0.0307
RRIRYRPPRLPRPRPRPQMQPRP | -0.794
RRIRYRPPRLPRPRPRPHKGPRP | -0.29
RRIRWRPPRLPRPRPRPKRMPRP | 0.217
RRIRERPPRLPRPRPRPCVKPRP | -0.00643
RRIRVRPPRLPRPRPRPMENPRP | -0.0625
RRIRLRPPRLPRPRPRPACSPRP | 0.0854
RRIRHRPPRLPRPRPRPGIIPRP | -0.0698
RRIRARPPRLPRPRPRPCANPRP | 0.102
RRIRIRPPRLPRPRPRPLVTPRP | -0.105
RRIRMRPPRLPRPRPRPESHPRP | 0.076
RRIRDRPPRLPRPRPRPSTAPRP | 0.314
RRIRTRPPRLPRPRPRPRHEPRP | -0.13
RRIRWRPPRLPRPRPRPGCVPRP | 0.607
RRIRFRPPRLPRPRPRPQGIPRP | 0.0254
RRIRKRPPRLPRPRPRPCIYPRP | -0.198
RRIRNRPPRLPRPRPRPLMMPRP | -0.193
